Our source for the Kd values is US20230183291A1, “ANTI-INFECTIVE BICYCLIC PEPTIDE LIGANDS” (priority 2020, published 2023).

Numbered stars: 1 amine (or outer) side, 2 acyl side, 3 side chain; on linkers, the order of the positions; unused ones are H or OH. Bridge positions count the residues as written; N and C are the ends. Square brackets hold non-standard residues; d marks the D form. Primed or numbered codes have the meaning given here. Ends that are not written are not given here. Arg(Me)′ = delta-N-methyl arginine, CN(CCC[C@H](N[*:1])C(=O)[*:2])C(=N)N; TATA = O=C(CC[*:1])N1CN(C(=O)CC[*:2])CN(C(=O)CC[*:3])C1; 1Nal = N[C@@H](Cc1cccc2ccccc12)C(=O)O; 2Nal = N[C@@H](Cc1ccc2ccccc2c1)C(=O)O; hArg = N=C(N)NCCCC[C@H](N)C(=O)O; Aib = CC(C)(N)C(=O)O; Sar = CNCC(=O)O

The target of the first experiment is ACE2 protein (Homo sapiens (Human)), Q9BYF1. Kind of experiment: fluorescence polarisation direct binding, 1 nM fluorescein tracer, ACE2 titrated. A general note: Fluorescence polarisation rises when a labelled molecule tumbles more slowly, as on binding a larger partner.
ACE2 protein (Homo sapiens (Human)), Q9BYF1, sequence (Q9BYF1 18-740 limits assumed): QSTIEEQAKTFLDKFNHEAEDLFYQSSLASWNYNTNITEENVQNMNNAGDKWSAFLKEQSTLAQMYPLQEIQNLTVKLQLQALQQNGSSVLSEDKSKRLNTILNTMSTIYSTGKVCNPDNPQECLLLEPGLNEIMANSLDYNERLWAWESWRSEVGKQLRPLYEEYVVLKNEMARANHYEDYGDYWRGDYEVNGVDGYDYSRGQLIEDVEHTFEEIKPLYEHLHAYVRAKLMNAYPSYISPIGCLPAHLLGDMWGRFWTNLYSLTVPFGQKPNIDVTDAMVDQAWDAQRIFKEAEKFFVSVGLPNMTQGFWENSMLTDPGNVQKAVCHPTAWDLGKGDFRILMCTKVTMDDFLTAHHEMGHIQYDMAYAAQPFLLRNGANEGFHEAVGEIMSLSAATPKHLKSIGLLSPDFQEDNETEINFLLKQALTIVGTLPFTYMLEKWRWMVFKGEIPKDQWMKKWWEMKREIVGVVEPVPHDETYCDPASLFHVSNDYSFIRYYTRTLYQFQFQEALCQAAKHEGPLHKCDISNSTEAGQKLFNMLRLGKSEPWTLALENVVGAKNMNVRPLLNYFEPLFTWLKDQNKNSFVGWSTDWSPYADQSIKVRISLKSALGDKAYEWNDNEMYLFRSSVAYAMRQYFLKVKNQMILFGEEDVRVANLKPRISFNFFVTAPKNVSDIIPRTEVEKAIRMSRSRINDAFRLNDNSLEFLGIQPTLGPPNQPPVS
Take ACLELYQCWRGKCA[Sar][Sar][Sar][Sar][Sar][Sar]K(fluorescein) (linker 2-8-13 via TATA) [BCY15420]: the Kd (commonly the free concentration of one partner at which half of the binding sites on the other are occupied at equilibrium, for simple one-to-one binding) amounted to 98.3 nM.

With ACNAVLCSWA[hArg]ANSFCA[Sar][Sar][Sar][Sar][Sar][Sar]K(fluorescein) (linker 2-7-16 via TATA) [BCY16874], the dissociation constant Kd amounted to 62 nM.

Turning to ACAN[Aib]VLCSWARANSFCA[Sar][Sar][Sar][Sar][Sar][Sar]K(fluorescein) (linker 2-8-17 via TATA) [BCY16871], the Kd was determined as 5.8 nM.

The molecule ACVRSHCSSLLPRIHCA[Sar][Sar][Sar][Sar][Sar][Sar]K(fluorescein) (linker 2-7-16 via TATA) [BCY15283] came in with a dissociation constant Kd of 21.9 nM.

In the case of ACAPILCRWAERQGYCA[Sar][Sar][Sar][Sar][Sar][Sar]K(fluorescein) (linker 2-7-16 via TATA) [BCY15419], the Kd turned out to be 20.4 nM.

For ACHKFPCRDPQQYLFCA[Sar][Sar][Sar][Sar][Sar][Sar]K(fluorescein) (linker 2-7-16 via TATA) [BCY15288], the Kd came to 225 nM.

In turn, ACNAVLCS[2Nal]ARANSFCA[Sar][Sar][Sar][Sar][Sar][Sar]K(fluorescein) (linker 2-7-16 via TATA) [BCY16867] had a Kd of 50.7 nM.

For the molecule ACLEVYKCWRGKCA[Sar][Sar][Sar][Sar][Sar][Sar]K(fluorescein) (linker 2-8-13 via TATA) [BCY15422], the dissociation constant (Kd) was 130 nM.

With ACNAVLCSWARANSFCA[Sar][Sar][Sar][Sar][Sar][Sar]K(fluorescein) (linker 2-7-16 via TATA) [BCY15423], the dissociation constant (Kd) came out at 5.53 nM.

Molecule ACPSQYKCWRGKCA[Sar][Sar][Sar][Sar][Sar][Sar]K(fluorescein) (linker 2-8-13 via TATA) [BCY15421] gave a dissociation constant (Kd) of 134 nM.

ACNAVLCSW[Aib]RANSFCA[Sar][Sar][Sar][Sar][Sar][Sar]K(fluorescein) (linker 2-7-16 via TATA) [BCY16872] registered a Kd of 2.9 nM.

Take ACNAVLCS[1Nal]ARANSFCA[Sar][Sar][Sar][Sar][Sar][Sar]K(fluorescein) (linker 2-7-16 via TATA) [BCY16866]: the Kd came out at 2.6 nM.

Consider ACTRPWCHSLLPRATCA[Sar][Sar][Sar][Sar][Sar][Sar]K(fluorescein) (linker 2-7-16 via TATA) [BCY15285], for which the Kd worked out at 157 nM.

With ACGRQFCHTLMPRHLCA[Sar][Sar][Sar][Sar][Sar][Sar]K(fluorescein) (linker 2-7-16 via TATA) [BCY15284], the Kd was found to be 65.5 nM.

In the next experiment the target is Biotinylated Human ACE2, His, Avitag protein (ACROBiosystems, AC2-H82E6) (human), Q9BYF1. Kind of experiment: SPR single cycle kinetics, ACE2 captured on CAP chip, peptide analyte; geometric mean.
Biotinylated Human ACE2, His, Avitag protein (ACROBiosystems, AC2-H82E6) (human), Q9BYF1, sequence (Q9BYF1 18-740 limits assumed): as above
ACNAVLCSWA[hArg]ANSFCA[Sar][Sar][Sar][Sar][Sar][Sar]K(fluorescein) (linker 2-7-16 via TATA) [BCY16874]: the Kd turned out to be 4.1 nM.

For the molecule ACAN[Aib]VLCSWARANSFCA[Sar][Sar][Sar][Sar][Sar][Sar]K(fluorescein) (linker 2-8-17 via TATA) [BCY16871], the dissociation constant Kd was found to be 7.7 nM.

Molecule ACNAVLCSWARANSFCA[Sar][Sar][Sar][Sar][Sar][Sar]K(fluorescein) (linker 2-7-16 via TATA) [BCY15423] yielded a Kd of 3.4 nM.

ACNAVLCSW[Aib]RANSFCA[Sar][Sar][Sar][Sar][Sar][Sar]K(fluorescein) (linker 2-7-16 via TATA) [BCY16872] gave a Kd of 8.9 nM.

On to ACNAVLCS[1Nal]ARANSFCA[Sar][Sar][Sar][Sar][Sar][Sar]K(fluorescein) (linker 2-7-16 via TATA) [BCY16866], for which the dissociation constant Kd came out at 2.1 nM.

Turning to ACNAVLCSWA[Arg(Me)′]ANSFCA[Sar][Sar][Sar][Sar][Sar][Sar]K(fluorescein) (linker 2-7-16 via TATA) [BCY16863], the dissociation constant (Kd) stood at 3.5 nM.
